Source: paper PMC8262884

What was measured:
[1] = biological target: native phosphoenolpyruvate carboxykinase (PEPCK) (Trypanosoma brucei (endogenous in EATRO1125.T7T procyclic cells))
[2] = biological target: TY-tagged phosphoenolpyruvate carboxykinase (TY-PEPCK) (Trypanosoma brucei); experiment: proximity ligation; Duolink In Situ Red mouse/rabbit kit on PFA-fixed, Triton X-100-permeabilized Δpepck/TY-PEPCK/UGP-MYC.i procyclic cells; rabbit anti-MYC and mouse anti-TY1; cell lines with only one tagged protein as negative controls

Row | Binder | glycosomal import of the tagged UGP (Western blot of glycosomal and cytosolic fractions), against native UGP in parental cells [1] [fold] | percent of PLA-positive cells [2] [%]
1 | TY-UGP_(1-485) (enzyme) MPLNPPSAFSGAALACLEKMQASGVEEKCIHIFLIQHALVRKGETGYIPEKSISPVESLPFLQGIETKGENTALLRQAVVLKLNGGLGTGMGLNGPKSLLQVKNGQTFLDFTALQLEHFRQVRNCNVPFMLMNSFSTSGETKNFLRKYPTLYEVFDSDIELMQNRVPKIRQDNFFPVTYEADPTCEWVPPGHGDVYTVLYSSGKLDYLLGKGYRYMFISNGDNLGATLDVRLLDYMHEKQLGFLMEVCRRTESDKKGGHLAYKDVIDETTGQTRRRFVLRESAQCPKEDEDSFQNIAKHCFFNTNNIWINLMELKKMMDEQLGVLRLPVMRNPKTVNPQDSQSTKVYQLEVAMGAAISLFDRSEAVVVPRERFAPVKTCSDLLALRSDAYQVTEDQRLVLCEERNGKPPAIDLDGEHYKMIDGFEKLVKGGVPSLRQCTSLTVRGLVEFGADVSVRGNVVIKNLKEEPLIIGSGRVLDNEVVVVE | 9 | 
2 | MYC-tagged UDP-glucose pyrophosphorylase (UGP-MYC) (enzyme) MPLNPPSAFSGAALACLEKMQASGVEEKCIHIFLIQHALVRKGETGYIPEKSISPVESLPFLQGIETKGENTALLRQAVVLKLNGGLGTGMGLNGPKSLLQVKNGQTFLDFTALQLEHFRQVRNCNVPFMLMNSFSTSGETKNFLRKYPTLYEVFDSDIELMQNRVPKIRQDNFFPVTYEADPTCEWVPPGHGDVYTVLYSSGKLDYLLGKGYRYMFISNGDNLGATLDVRLLDYMHEKQLGFLMEVCRRTESDKKGGHLAYKDVIDETTGQTRRRFVLRESAQCPKEDEDSFQNIAKHCFFNTNNIWINLMELKKMMDEQLGVLRLPVMRNPKTVNPQDSQSTKVYQLEVAMGAAISLFDRSEAVVVPRERFAPVKTCSDLLALRSDAYQVTEDQRLVLCEERNGKPPAIDLDGEHYKMIDGFEKLVKGGVPSLRQCTSLTVRGLVEFGADVSVRGNVVIKNLKEEPLIIGSGRVLDNEVVVVE |  | 62
